Experimental data reported in paper PMC3634583.

Tests used:
[1] = Western blot of 293T lysate, 8 kDa BNP form; conditions: glycan lost; control: wild-type pre-proBNP
Western blot = conditions: glycan lost; control: wild-type pre-proBNP

With “proBNP1-108 (pro-B-type natriuretic peptide): T71A” the “other: proteolytic processing” value [1] was “increases” and the “other: proteolytic processing” value (Western blot) was “increases”.
